Assay results taken from publication PMC9364786 (Journal of Virology, 2022).

Target: SARS-CoV-2 subdomain 1 (SBD) protein, D614G (SARS-CoV-2, UniProt P0DTC2)
Test: ELISA
Conditions: both partners purified

B1: MAb 084-7D (antibody, V domains shown)
VH: EVQLLESGGGLVQPGGSLRLSCAASGFSFSSYAMNWVRQAPGKGLEWVSAISGGGDNIYYADSVKGRFTISRDNYKNTLHLQMKSLRAEDTAVYYCAKDHPSWGSSFLNWGQGILVIVSS
VL: DIQMTQSPSTLSASVGDRVTITCRASQSISSWLAWYQQKPGRAPKLLIYTASNLESGVPSRFSGSGSGTEFSLTISSLQPDDFATYYCQQYNSYSLTFGGGTRVEIK
notes: also called 084-7D MAb
- binding result: no binding (tested: 5 μg/mL starting concentration)
